This note sets out measurements from the supplement of paper PMC9170038.

In this series the test system is MS2 coat protein. Nature of the series: apparent KD of MS2 coat protein; higher = weaker reporter binding. Conditions: Eterna round: R107. An outline of the steps:
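SNAP-549-labelled MS2 coat protein was titrated onto designed RNA switches that had been transcribed on-chip from Illumina sequencing clusters. Amounts doubled from 0.7 or 1.5 nM to 3 µM in 100 mM Tris-HCl pH 7.5, 80 mM KCl, 4 mM MgCl2, with constant ligand or without. Apparent KD is the median per design of normalised cluster binding-curve fits.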

The mark [1] stands for this setting: input ligand: theophylline 20 uM.
[2] abbreviates: input ligand: tryptophan 2.4 mM.
Setting [3] is: input ligand: theophylline 2 mM.

As to “AUAUUAGACCUGGAUACCAGCGACAUGAGGAUCACCCAUGUAUGUGCAUCUGCCAUGAUAUGCCCUUGGCAGCCACCGAGGUCGU [CZZMULLIN]”, the “apparent KD of MS2 coat protein” value is, setting by setting: (input ligand: arginine 13.2 mM) 12.4 nM; under setting [1], 16 nM; under setting [2], 10.8 nM.
Regarding “AUCCACAGCCGAAGGAGCGCAGUAGGAUGACAUGAGGAUCACCCAUGUGUGUGAUGUGGAUUGCAGGUAGGUCGCGGAGUGGAUU [Exclusion - Arginine B (Freestyle 9)]”, the “apparent KD of MS2 coat protein” value (input ligand: arginine 13.2 mM) worked out at 165 nM; the “apparent KD of MS2 coat protein” value (input ligand: none) turned out to be 54.5 nM; the “apparent KD of MS2 coat protein” value under setting [1] was found to be 82 nM; the “apparent KD of MS2 coat protein” value under setting [3] is 60.1 nM; the “apparent KD of MS2 coat protein” value under setting [2] was determined as 46.4 nM.
For the sequence “AUGACUUACGGGCGCCAUUUGUAAUAGGAAGGAGCGGCGAGAUAGCCAGGUAGGUCGCCUAUACAUGAGGAUCACCCAUGUCACC [Vegeorbe]”, the “apparent KD of MS2 coat protein” value reads like this: (input ligand: arginine 13.2 mM) 66.8 nM; (input ligand: none) 120 nM; under setting [1], 103 nM; under setting [3], 81.8 nM; under setting [2], 112 nM.
In the case of “AUGCACCUCGUCCAGGCAAUCUUUAGUGAUACCAGCUAACUCCUUGGCCCUUGGCAGCACAUGAGGAUCACCCAUGUGCGACAUC [Tidile]”, the “apparent KD of MS2 coat protein” value runs as follows: (input ligand: arginine 13.2 mM) 11.1 nM; under setting [1], 14.9 nM; under setting [2], 13.9 nM.
For the sequence “AUGCAUAGCACGGCCGCCACUCCAUGUAAACAUGAGGAUCACCCAUGUAAUUUGGAUGUUUUAUAGAGGACCGGGUGAAAUGCAA [JR_ExcTryptoB_Sub004]”, the “apparent KD of MS2 coat protein” value reads like this: (input ligand: arginine 13.2 mM) 8.42 nM; under setting [1], 10.1 nM; under setting [3], 10.3 nM.
Turning to “AUGCAUAGCGGAAGGAGCGCAAUAGAAUGACAUGAGGAUCACCCAUGUGUGUGAUGUGGGUUGCAGGUAGGUCGCCGAGUGGCAU [#11 Exclusion - Arginine B]”, the “apparent KD of MS2 coat protein” value stood at 77.6 nM (input ligand: arginine 13.2 mM); 80.9 nM (input ligand: none); 95.9 nM under setting [1]; 127 nM under setting [3]; 59.1 nM under setting [2].
Consider “AUGCCUAGUGGAAGGAGCGAGGGUCUUCUCAACAUGAGGAUCACCCAUGUUCUUUUAUACCCUCAGGUAGGUCGCCAUUGGGACA [Anenre]”, for which the “apparent KD of MS2 coat protein” value by setting is: (input ligand: arginine 13.2 mM) 27.7 nM; (input ligand: none) 28.8 nM; under setting [1], 33.6 nM; under setting [3], 25.7 nM; under setting [2], 34.8 nM.
Regarding “AUGGAGACCUCGGCCGCCACUCUCCAUGAGGAUCUCCCAUGUAACAUGAGGAUCACCCAUGUGCUGAGGACCGGGAGGUCCUGAA [Same State Tryptophan B GF 18]”, the “apparent KD of MS2 coat protein” value runs as follows: (input ligand: arginine 13.2 mM) 9.2 nM; under setting [1], 15.8 nM; under setting [3], 12.5 nM.
“AUUAAUUUAUUUCUCAAUUUAAUUUCAGAAGGAGCGUGAUGUUUCACAGGUAGGUCGCUGUUUACAUGAGGAUCACCCAUGUUUU [JR_SSArginiA_Sub004]”: the “apparent KD of MS2 coat protein” value amounted to 32 nM (input ligand: arginine 13.2 mM); 40.2 nM (input ligand: none); 44.4 nM under setting [1]; 40.4 nM under setting [3]; 31.8 nM under setting [2].
For “AUUACAUGAGCAUCAGCACAUGAGGAUCACCGAGGACCGGUACGGCCGCCACUCGACACAUGAGGAUCACCCAUGUGUUGUUGUU [Exclusion Tryptophan A 3]”, the “apparent KD of MS2 coat protein” value by setting is: (input ligand: arginine 13.2 mM) 24.6 nM; under setting [1], 345 nM; under setting [3], 281 nM.
With “AUUACAUGGAUUACAACUAAAUCAACUGAAGGAGCGUGAAGGAUCACAGGUAGGUCGCAGUACAUGAGGAUCACCCAUGUUAUAA [JR_Nu_SSArginiA_Sub021]”, the “apparent KD of MS2 coat protein” value by setting is: (input ligand: arginine 13.2 mM) 34.4 nM; (input ligand: none) 34 nM; under setting [1], 48.5 nM; under setting [3], 45.9 nM; under setting [2], 39.6 nM.
For “AUUAUCGUAGGUUAAAGUUUAGAAACUGAAGGAGCGUGGUAUUACACAGGUAGGUCGCAGAUUUUACAUGAGGAUCACCCAUGUU [JR_ExcArginiA_Sub010]”, in that order: 21.3 nM, 22.4 nM, 26.3 nM, 25.1 nM and 21.5 nM.
With “AUUGUCAAGUCGGCCGCCACUUCUGCCAUGGCCACCAGUCGACAUGAGGAUCACCCAUGUCUCUUAAGGACCGGGACUUUCAAUU [theeternabot_sameState_MS2_Trp_B_6]”, the “apparent KD of MS2 coat protein” value worked out at 13.1 nM (input ligand: arginine 13.2 mM), 16 nM under setting [1] and 13.9 nM under setting [3].
For the sequence “AUUUUCAUGGUCAUAUAUAUAUCUUCAGAUACCAGACUAUAUUAAGUCCCUUGGCAGCUGUUACAUGAGGAUCACCCAUGUUAUA [JR_ExcTheophyA_Sub013]”, the “apparent KD of MS2 coat protein” value (input ligand: arginine 13.2 mM) came out at 40.1 nM, the “apparent KD of MS2 coat protein” value under setting [1] was determined as 65.3 nM and the “apparent KD of MS2 coat protein” value under setting [2] worked out at 78 nM.
For “CAAGCACCAACCGAUACCAGCUUAGUAGUAUGCUCAUUAAACAUGAGGAUCACCCAUGUGAGCCCUUGGCAGCGGAUUUCCCUGC [theeternabot_exclusion_MS2_Theo_B_12]”, the “apparent KD of MS2 coat protein” value stood at 14.5 nM (input ligand: arginine 13.2 mM), 18.3 nM under setting [1] and 13.5 nM under setting [2].
As to “CACUACAUGAGGAUCACCCAUGUCUUCCGACGAGGACCGGUACGGCCGCCACUCGAACCUCCAACUAAUACCUCAACCGUCUGAU [theeternabot_sameState_MS2_Trp_A_25]”, the “apparent KD of MS2 coat protein” value runs as follows: (input ligand: arginine 13.2 mM) 36.5 nM; under setting [1], 110 nM; under setting [3], 101 nM.
As to “CAGAGACAUGAGGAUCACCCAUGUUGAGAUACCAGCUUGGUAUCGAGCCCUUGGCAGCUCGCCCAUCGUCUAUAUCAGCCUGAGC [theeternabot_sameState_MS2_Theo_A_40]”, the “apparent KD of MS2 coat protein” value (input ligand: arginine 13.2 mM) was 17 nM, the “apparent KD of MS2 coat protein” value under setting [1] was 18.9 nM and the “apparent KD of MS2 coat protein” value under setting [2] is 16.8 nM.
With “CAGGUGGACUGAAGGAGCGAGUCAGGGACUUACAUGAGGAUCACCCAUGUCACGGUCGUCACUCAGGUAGGUCGCAGUUCGCCUC [Diinan]”, the “apparent KD of MS2 coat protein” value (input ligand: arginine 13.2 mM) is 113 nM; the “apparent KD of MS2 coat protein” value (input ligand: none) was determined as 188 nM; the “apparent KD of MS2 coat protein” value under setting [1] was found to be 279 nM; the “apparent KD of MS2 coat protein” value under setting [3] is 628 nM; the “apparent KD of MS2 coat protein” value under setting [2] is 231 nM.
